{
  "source": "the supplement of paper PMC9112550",
  "about": "“Optimization of the antimicrobial peptide Bac7 by deep mutational scanning” (BMC Biology, 2022);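 note: peptides expressed intracellularly from a pBAD plasmid library in pooled LB shake-flask culture, induced with 0.3% L-arabinose, DNA abundance read by NGS, three biological replicates, DESeq2 with apeglm shrinkage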",
  "system": "Escherichia coli TOP10",
  "test": "shrunken log2 fold change of peptide-encoding DNA abundance (4.5 h post-induction vs induction); higher = less antimicrobial activity (less host growth inhibition)",
  "details": "time post-induction: 4.5 h; library: site-saturation at positions 5, 18, 19, 20",
  "data": [
    {"sequence": "RRIRCRPPRLPRPRPRPPHEPRP", "values": [
      {"measurement": "shrunken log2 fold change", "value": 1.23}
    ]},
    {"sequence": "RRIRDRPPRLPRPRPRPRLGPRP", "values": [
      {"measurement": "shrunken log2 fold change", "value": 0.829}
    ]},
    {"sequence": "RRIRDRPPRLPRPRPRPKGFPRP", "values": [
      {"measurement": "shrunken log2 fold change", "value": -0.073}
    ]},
    {"sequence": "RRIRCRPPRLPRPRPRPSFNPRP", "values": [
      {"measurement": "shrunken log2 fold change", "value": -0.882}
    ]},
    {"sequence": "RRIRYRPPRLPRPRPRPLEHPRP", "values": [
      {"measurement": "shrunken log2 fold change", "value": -0.26}
    ]},
    {"sequence": "RRIRYRPPRLPRPRPRPLEVPRP", "values": [
      {"measurement": "shrunken log2 fold change", "value": -0.335}
    ]},
    {"sequence": "RRIRYRPPRLPRPRPRPMWAPRP", "values": [
      {"measurement": "shrunken log2 fold change", "value": -0.0298}
    ]},
    {"sequence": "RRIRLRPPRLPRPRPRPLGCPRP", "values": [
      {"measurement": "shrunken log2 fold change", "value": 0.0856}
    ]},
    {"sequence": "RRIRSRPPRLPRPRPRPLHMPRP", "values": [
      {"measurement": "shrunken log2 fold change", "value": 0.0919}
    ]},
    {"sequence": "RRIRKRPPRLPRPRPRPAWTPRP", "values": [
      {"measurement": "shrunken log2 fold change", "value": 0.261}
    ]},
    {"sequence": "RRIRKRPPRLPRPRPRPPTYPRP", "values": [
      {"measurement": "shrunken log2 fold change", "value": 0.0129}
    ]},
    {"sequence": "RRIRYRPPRLPRPRPRPESNPRP", "values": [
      {"measurement": "shrunken log2 fold change", "value": -0.23}
    ]},
    {"sequence": "RRIRSRPPRLPRPRPRPTLPPRP", "values": [
      {"measurement": "shrunken log2 fold change", "value": 0.212}
    ]},
    {"sequence": "RRIRQRPPRLPRPRPRPLMRPRP", "values": [
      {"measurement": "shrunken log2 fold change", "value": 0.345}
    ]},
    {"sequence": "RRIRCRPPRLPRPRPRPQAFPRP", "values": [
      {"measurement": "shrunken log2 fold change", "value": -0.00585}
    ]},
    {"sequence": "RRIRDRPPRLPRPRPRPRNHPRP", "values": [
      {"measurement": "shrunken log2 fold change", "value": -0.641}
    ]},
    {"sequence": "RRIRIRPPRLPRPRPRPCLAPRP", "values": [
      {"measurement": "shrunken log2 fold change", "value": -0.693}
    ]},
    {"sequence": "RRIRRRPPRLPRPRPRPFQFPRP", "values": [
      {"measurement": "shrunken log2 fold change", "value": -0.0742}
    ]},
    {"sequence": "RRIRDRPPRLPRPRPRPSPHPRP", "values": [
      {"measurement": "shrunken log2 fold change", "value": -0.0473}
    ]},
    {"sequence": "RRIRMRPPRLPRPRPRPSFCPRP", "values": [
      {"measurement": "shrunken log2 fold change", "value": -0.0778}
    ]},
    {"sequence": "RRIRIRPPRLPRPRPRPFCMPRP", "values": [
      {"measurement": "shrunken log2 fold change", "value": -0.4}
    ]},
    {"sequence": "RRIRHRPPRLPRPRPRPAKYPRP", "values": [
      {"measurement": "shrunken log2 fold change", "value": 0.136}
    ]},
    {"sequence": "RRIRARPPRLPRPRPRPQHCPRP", "values": [
      {"measurement": "shrunken log2 fold change", "value": 0.138}
    ]},
    {"sequence": "RRIRERPPRLPRPRPRPDIHPRP", "values": [
      {"measurement": "shrunken log2 fold change", "value": -0.512}
    ]},
    {"sequence": "RRIRARPPRLPRPRPRPPRKPRP", "values": [
      {"measurement": "shrunken log2 fold change", "value": 1.1}
    ]},
    {"sequence": "RRIRVRPPRLPRPRPRPPESPRP", "values": [
      {"measurement": "shrunken log2 fold change", "value": 0.201}
    ]},
    {"sequence": "RRIRSRPPRLPRPRPRPWTEPRP", "values": [
      {"measurement": "shrunken log2 fold change", "value": -0.314}
    ]},
    {"sequence": "RRIRWRPPRLPRPRPRPHICPRP", "values": [
      {"measurement": "shrunken log2 fold change", "value": 0.00277}
    ]},
    {"sequence": "RRIRYRPPRLPRPRPRPCNEPRP", "values": [
      {"measurement": "shrunken log2 fold change", "value": 0.0341}
    ]},
    {"sequence": "RRIRERPPRLPRPRPRPSHTPRP", "values": [
      {"measurement": "shrunken log2 fold change", "value": -0.248}
    ]},
    {"sequence": "RRIRGRPPRLPRPRPRPPLNPRP", "values": [
      {"measurement": "shrunken log2 fold change", "value": 0.789}
    ]},
    {"sequence": "RRIRNRPPRLPRPRPRPPDEPRP", "values": [
      {"measurement": "shrunken log2 fold change", "value": 1.28}
    ]},
    {"sequence": "RRIRVRPPRLPRPRPRPHFSPRP", "values": [
      {"measurement": "shrunken log2 fold change", "value": -0.0373}
    ]},
    {"sequence": "RRIRKRPPRLPRPRPRPIVWPRP", "values": [
      {"measurement": "shrunken log2 fold change", "value": 0.527}
    ]},
    {"sequence": "RRIRYRPPRLPRPRPRPPDDPRP", "values": [
      {"measurement": "shrunken log2 fold change", "value": 0.141}
    ]},
    {"sequence": "RRIRHRPPRLPRPRPRPEITPRP", "values": [
      {"measurement": "shrunken log2 fold change", "value": -0.0206}
    ]},
    {"sequence": "RRIRDRPPRLPRPRPRPMLPPRP", "values": [
      {"measurement": "shrunken log2 fold change", "value": 0.16}
    ]},
    {"sequence": "RRIRSRPPRLPRPRPRPSINPRP", "values": [
      {"measurement": "shrunken log2 fold change", "value": -0.567}
    ]},
    {"sequence": "RRIRQRPPRLPRPRPRPHIEPRP", "values": [
      {"measurement": "shrunken log2 fold change", "value": -0.58}
    ]},
    {"sequence": "RRIRERPPRLPRPRPRPFFTPRP", "values": [
      {"measurement": "shrunken log2 fold change", "value": -0.106}
    ]},
    {"sequence": "RRIRFRPPRLPRPRPRPHVGPRP", "values": [
      {"measurement": "shrunken log2 fold change", "value": -0.224}
    ]},
    {"sequence": "RRIRNRPPRLPRPRPRPVEKPRP", "values": [
      {"measurement": "shrunken log2 fold change", "value": 0.143}
    ]},
    {"sequence": "RRIRHRPPRLPRPRPRPKGIPRP", "values": [
      {"measurement": "shrunken log2 fold change", "value": -0.092}
    ]},
    {"sequence": "RRIRCRPPRLPRPRPRPQGQPRP", "values": [
      {"measurement": "shrunken log2 fold change", "value": 0.155}
    ]},
    {"sequence": "RRIRLRPPRLPRPRPRPCPQPRP", "values": [
      {"measurement": "shrunken log2 fold change", "value": -0.391}
    ]},
    {"sequence": "RRIRNRPPRLPRPRPRPYIRPRP", "values": [
      {"measurement": "shrunken log2 fold change", "value": 0.00719}
    ]},
    {"sequence": "RRIRSRPPRLPRPRPRPQSDPRP", "values": [
      {"measurement": "shrunken log2 fold change", "value": -0.0499}
    ]},
    {"sequence": "RRIRKRPPRLPRPRPRPEAIPRP", "values": [
      {"measurement": "shrunken log2 fold change", "value": 0.101}
    ]},
    {"sequence": "RRIRTRPPRLPRPRPRPVMQPRP", "values": [
      {"measurement": "shrunken log2 fold change", "value": -0.0482}
    ]},
    {"sequence": "RRIRTRPPRLPRPRPRPYKHPRP", "values": [
      {"measurement": "shrunken log2 fold change", "value": -0.518}
    ]},
    {"sequence": "RRIRPRPPRLPRPRPRPMRHPRP", "values": [
      {"measurement": "shrunken log2 fold change", "value": -0.0129}
    ]},
    {"sequence": "RRIRVRPPRLPRPRPRPFAAPRP", "values": [
      {"measurement": "shrunken log2 fold change", "value": 0.15}
    ]},
    {"sequence": "RRIRLRPPRLPRPRPRPIYCPRP", "values": [
      {"measurement": "shrunken log2 fold change", "value": -0.527}
    ]},
    {"sequence": "RRIRYRPPRLPRPRPRPYVHPRP", "values": [
      {"measurement": "shrunken log2 fold change", "value": -1.05}
    ]},
    {"sequence": "RRIRNRPPRLPRPRPRPWKGPRP", "values": [
      {"measurement": "shrunken log2 fold change", "value": -0.0198}
    ]},
    {"sequence": "RRIRSRPPRLPRPRPRPSYYPRP", "values": [
      {"measurement": "shrunken log2 fold change", "value": -0.529}
    ]},
    {"sequence": "RRIRMRPPRLPRPRPRPQKIPRP", "values": [
      {"measurement": "shrunken log2 fold change", "value": 0.255}
    ]},
    {"sequence": "RRIRQRPPRLPRPRPRPNSEPRP", "values": [
      {"measurement": "shrunken log2 fold change", "value": -0.206}
    ]},
    {"sequence": "RRIRFRPPRLPRPRPRPGRRPRP", "values": [
      {"measurement": "shrunken log2 fold change", "value": 0.334}
    ]},
    {"sequence": "RRIRRRPPRLPRPRPRPLIYPRP", "values": [
      {"measurement": "shrunken log2 fold change", "value": 0.431}
    ]}
  ]
}
